Values quoted from earlier work as cited in PMC10866841.
Like-named read-outs stand apart in the source and are kept apart here.

Tests used:
[1] = target: C4d C4d (Homo sapiens) (UniProt P0C0L4)
[2] = target: oligomeric amyloid-β (Homo sapiens) (UniProt P05067)
[3] = target: C4d C4d (Homo sapiens) (UniProt P0C0L4); remark: listed apart in the source
[4] = target: oligomeric amyloid-β (Homo sapiens) (UniProt P05067); remark: listed apart in the source

oligomeric amyloid-β (Homo sapiens), sequence (P05067 672-713): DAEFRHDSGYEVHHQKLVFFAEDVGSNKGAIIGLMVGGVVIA
PIRB, sequence (P97484 25-642): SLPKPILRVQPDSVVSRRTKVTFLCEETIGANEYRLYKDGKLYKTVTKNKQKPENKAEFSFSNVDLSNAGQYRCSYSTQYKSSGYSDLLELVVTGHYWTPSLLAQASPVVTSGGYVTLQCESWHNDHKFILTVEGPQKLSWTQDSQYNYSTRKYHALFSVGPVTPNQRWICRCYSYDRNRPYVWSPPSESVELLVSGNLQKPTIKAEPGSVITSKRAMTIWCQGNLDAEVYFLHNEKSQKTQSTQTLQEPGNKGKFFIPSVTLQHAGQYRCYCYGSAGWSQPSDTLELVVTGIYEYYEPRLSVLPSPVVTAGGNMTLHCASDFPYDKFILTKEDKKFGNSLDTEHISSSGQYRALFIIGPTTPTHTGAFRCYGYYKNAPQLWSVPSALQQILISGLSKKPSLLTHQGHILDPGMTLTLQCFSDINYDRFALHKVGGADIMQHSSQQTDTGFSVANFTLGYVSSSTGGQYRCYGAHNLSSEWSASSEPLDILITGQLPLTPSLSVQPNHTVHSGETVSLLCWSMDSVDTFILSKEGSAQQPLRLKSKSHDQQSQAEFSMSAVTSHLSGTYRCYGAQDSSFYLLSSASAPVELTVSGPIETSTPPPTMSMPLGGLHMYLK
C4d C4d (Homo sapiens), sequence (P0C0L4 957-1336): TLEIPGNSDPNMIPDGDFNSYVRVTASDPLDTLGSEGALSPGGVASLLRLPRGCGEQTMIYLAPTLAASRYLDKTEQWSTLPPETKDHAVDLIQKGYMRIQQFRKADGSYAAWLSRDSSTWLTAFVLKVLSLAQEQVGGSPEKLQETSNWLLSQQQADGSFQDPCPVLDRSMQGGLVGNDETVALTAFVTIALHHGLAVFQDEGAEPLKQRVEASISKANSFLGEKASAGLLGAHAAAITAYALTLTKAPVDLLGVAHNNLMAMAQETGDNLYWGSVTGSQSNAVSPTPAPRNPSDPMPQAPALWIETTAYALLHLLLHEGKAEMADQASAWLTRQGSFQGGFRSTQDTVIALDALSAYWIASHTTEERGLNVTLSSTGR
LILRB2, sequence (Q8N423 22-460): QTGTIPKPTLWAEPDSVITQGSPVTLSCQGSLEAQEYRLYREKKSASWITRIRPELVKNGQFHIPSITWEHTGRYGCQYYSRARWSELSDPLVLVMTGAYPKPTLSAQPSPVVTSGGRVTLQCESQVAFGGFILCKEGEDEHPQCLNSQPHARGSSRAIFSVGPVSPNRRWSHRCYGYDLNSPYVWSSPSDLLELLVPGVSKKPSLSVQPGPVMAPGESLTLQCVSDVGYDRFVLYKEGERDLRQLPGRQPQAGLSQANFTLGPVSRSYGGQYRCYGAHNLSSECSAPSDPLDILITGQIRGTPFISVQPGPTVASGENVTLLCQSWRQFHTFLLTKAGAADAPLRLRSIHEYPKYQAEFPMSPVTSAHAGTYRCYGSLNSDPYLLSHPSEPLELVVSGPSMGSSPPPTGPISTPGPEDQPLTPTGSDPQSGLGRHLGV

Kd [1]	Kd [2]	Kd [3]	Kd [4]	Substance
0.63 µM	0.18 µM	–	–	LILRB2 (from UniProt Q8N423)
–	–	0.63 µM	0.18 µM	PIRB (from UniProt P97484)
